Data set [1] addresses BPV-1 E1 helicase domain (E1HD), residues 299-605 (bovine papillomavirus (BPV-1)) (UniProt P03116). The experiment in a line: SEC. Background: SEC sorts molecules by how far they enter the pores of the column.
Data set [2] has as its target T1, E1HD (E1 helicase domain) (bovine papillomavirus BPV-1, UniProt P03116 299-605). The experiment in a line: EMSA.
Data set [3] has as its target T1, E1HD (E1 helicase domain). The experiment in a line: gel filtration.

T1 sequence (P03116 299-605): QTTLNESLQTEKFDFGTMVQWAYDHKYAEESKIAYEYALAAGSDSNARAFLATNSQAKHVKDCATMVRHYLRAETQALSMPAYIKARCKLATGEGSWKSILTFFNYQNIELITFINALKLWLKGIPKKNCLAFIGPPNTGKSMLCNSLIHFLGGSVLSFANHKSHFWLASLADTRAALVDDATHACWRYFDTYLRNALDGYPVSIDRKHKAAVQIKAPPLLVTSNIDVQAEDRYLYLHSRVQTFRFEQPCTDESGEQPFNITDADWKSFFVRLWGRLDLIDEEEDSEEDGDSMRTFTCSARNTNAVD

Consider “BPV-1 E1 helicase domain (E1HD), residues 299-605 (from UniProt P03116 299-605) (domain or fragment)”, for which, in data set [1], the stoichiometry N was 6.
On to TTTTTTTTTTTTTTTTTTTTTTTTTTTTTT (ssDNA) [T30], for which the binding result in data set [2] is listed as “binds”.
On to TTTTTTTTTTTTTTTTTT (ssDNA) [T18], for which the binding result in data set [3] is given as “binds”.

In general, stoichiometry N refers to a count of units in the complex or per binding partner.

The values above are taken from paper PMC3300016.
